According to paper PMC10163027, “Coordinated regulation of vegetative phase change by brassinosteroids and the age pathway in Arabidopsis” (Nature Communications, 2023):

B1: GST-BIN2 (enzyme, Arabidopsis, UniProt Q39011 1-380, looked up)
chain: MADDKEMPAAVVDGHDQVTGHIISTTIGGKNGEPKQTISYMAERVVGTGSFGIVFQAKCLETGETVAIKKVLQDRRYKNRELQLMRVMDHPNVVCLKHCFFSTTSKDELFLNLVMEYVPESLYRVLKHYSSANQRMPLVYVKLYMYQIFRGLAYIHNVAGVCHRDLKPQNLLVDPLTHQVKICDFGSAKQLVKGEANISYICSRFYRAPELIFGATEYTTSIDIWSAGCVLAELLLGQPLFPGENAVDQLVEIIKVLGTPTREEIRCMNPHYTDFRFPQIKAHPWHKIFHKRMPPEAIDFASRLLQYSPSLRCTALEACAHPFFDELREPNARLPNGRPFPPLFNFKQEVAGSSPELVNKLIPDHIKRQLGLSFLNQSGT
notes: BIN2, GSK3-like kinase of Arabidopsis; the BIN2 ORF was cloned into pPGH (derived from pGEX4T-2); Printed both as GST-BIN2 and BIN2-GST; a vector derived from pGEX4T-2 would put GST at the N-terminus (surmised); also called BIN2-GST; pPGH-BIN2; source: E. coli Rosetta (DE3), purified (GST resin)

Legend:
6×His-TOE1 = target: T1, 6×His-TOE1 (Arabidopsis, UniProt Q9SK03 1-449); experiment: pull-down; purified His-tagged protein incubated with resin bound with GST or GST-BIN2 at 4 °C for 4 h; washed five times with PBS-EW; blots with anti-His and anti-GST; conditions: both partners purified
T1 construct: TOE1 (AP2-like protein) of Arabidopsis; the TOE1 ORF was cloned into pET-30a (+); Printed both as 6×His-TOE1 and TOE1-His; pET-30a(+) may add further vector residues (surmised); also called TOE1-His; TOE1-HIS; source: E. coli Rosetta (DE3), purified (Ni-NTA)
T1 sequence (Q9SK03 whole entry): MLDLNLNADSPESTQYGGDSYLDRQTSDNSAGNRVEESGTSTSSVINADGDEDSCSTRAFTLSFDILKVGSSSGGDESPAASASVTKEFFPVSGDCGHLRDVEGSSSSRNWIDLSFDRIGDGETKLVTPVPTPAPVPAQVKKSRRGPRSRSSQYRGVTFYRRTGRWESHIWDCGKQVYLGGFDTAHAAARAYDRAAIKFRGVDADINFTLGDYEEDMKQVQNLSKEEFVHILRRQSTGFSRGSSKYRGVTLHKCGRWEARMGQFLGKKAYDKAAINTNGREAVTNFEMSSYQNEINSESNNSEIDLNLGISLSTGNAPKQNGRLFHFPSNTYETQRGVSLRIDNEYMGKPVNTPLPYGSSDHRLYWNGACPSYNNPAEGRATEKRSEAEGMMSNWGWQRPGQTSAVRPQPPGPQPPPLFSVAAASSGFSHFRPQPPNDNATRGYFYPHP

GST-BIN2 = target: B1; experiment: as above; conditions: both partners purified

binding result (6×His-TOE1) | binding result (GST-BIN2) | Binder
binds |  | B1
 | binds | 6×His-SPL9 (natural protein, Arabidopsis, UniProt Q700W2 1-375, looked up, SPL9 of Arabidopsis; the SPL9 ORF was cloned into pET-30a (+); Printed both as 6×His-SPL9 and SPL9-His; pET-30a(+) may add further vector residues (surmised); also called SPL9-His; SPL9-HIS; source: E. coli Rosetta (DE3), purified (Ni-NTA)) MEMGSNSGPGHGPGQAESGGSSTESSSFSGGLMFGQKIYFEDGGGGSGSSSSGGRSNRRVRGGGSGQSGQIPRCQVEGCGMDLTNAKGYYSRHRVCGVHSKTPKVTVAGIEQRFCQQCSRFHQLPEFDLEKRSCRRRLAGHNERRRKPQPASLSVLASRYGRIAPSLYENGDAGMNGSFLGNQEIGWPSSRTLDTRVMRRPVSSPSWQINPMNVFSQGSVGGGGTSFSSPEIMDTKLESYKGIGDSNCALSLLSNPHQPHDNNNNNNNNNNNNNNTWRASSGFGPMTVTMAQPPPAPSQHQYLNPPWVFKDNDNDMSPVLNLGRYTEPDNCQISSGTAMGEFELSDHHHQSRRQYMEDENTRAYDSSSHHTNWSL
